Article PMC10467048

Tests used:
[1] = biological target: LTB−JEV EDIII (TEV cut) (not stated | Japanese encephalitis virus); test: PAGE under non-reduced conditions (without boiling, without DTT)
[2] = biological target: LTB−JEV EDIII (TEV cut) (not stated | Japanese encephalitis virus); test: SEC
[3] = biological target: LTB−JEV EDIII (TEV cut) (not stated | Japanese encephalitis virus); test: PAGE after incubation at different temperatures
[4] = biological target: CTB−JEV EDIII (not stated | Japanese encephalitis virus); test: PAGE under non-reduced conditions (without boiling, without DTT)
[5] = biological target: CTB−JEV EDIII (not stated | Japanese encephalitis virus); test: PAGE after incubation at different temperatures

Substance	stoichiometry N [1]	stoichiometry N [2]	stoichiometry N [3]	stoichiometry N [4]	stoichiometry N [5]
LTB−JEV EDIII (TEV cut)	5	5	5	–	–
CTB−JEV EDIII	–	–	–	5	5
